Molecular target: T1, GST-tagged MCM2 (human, UniProt P49736 1-904)
T1 construct: MCM2, amplified from cDNA of human MCF-7 cells, in pGEX-C5X; called MCM2-His in the three-protein pull-down; also called GST-MCM2; MCM2-His; source: E. coli BL21, purified (Ni-NTA); not shown: GST, N-terminal, kept; His tag, C-terminal, kept
Test: BLI; MCM2 immobilised on Anti-GST biosensors, BLItz, 1x PBS and 0.02% Tween; analyte 0-50.0 nM
Conditions: both partners purified

T1 sequence (P49736 whole entry): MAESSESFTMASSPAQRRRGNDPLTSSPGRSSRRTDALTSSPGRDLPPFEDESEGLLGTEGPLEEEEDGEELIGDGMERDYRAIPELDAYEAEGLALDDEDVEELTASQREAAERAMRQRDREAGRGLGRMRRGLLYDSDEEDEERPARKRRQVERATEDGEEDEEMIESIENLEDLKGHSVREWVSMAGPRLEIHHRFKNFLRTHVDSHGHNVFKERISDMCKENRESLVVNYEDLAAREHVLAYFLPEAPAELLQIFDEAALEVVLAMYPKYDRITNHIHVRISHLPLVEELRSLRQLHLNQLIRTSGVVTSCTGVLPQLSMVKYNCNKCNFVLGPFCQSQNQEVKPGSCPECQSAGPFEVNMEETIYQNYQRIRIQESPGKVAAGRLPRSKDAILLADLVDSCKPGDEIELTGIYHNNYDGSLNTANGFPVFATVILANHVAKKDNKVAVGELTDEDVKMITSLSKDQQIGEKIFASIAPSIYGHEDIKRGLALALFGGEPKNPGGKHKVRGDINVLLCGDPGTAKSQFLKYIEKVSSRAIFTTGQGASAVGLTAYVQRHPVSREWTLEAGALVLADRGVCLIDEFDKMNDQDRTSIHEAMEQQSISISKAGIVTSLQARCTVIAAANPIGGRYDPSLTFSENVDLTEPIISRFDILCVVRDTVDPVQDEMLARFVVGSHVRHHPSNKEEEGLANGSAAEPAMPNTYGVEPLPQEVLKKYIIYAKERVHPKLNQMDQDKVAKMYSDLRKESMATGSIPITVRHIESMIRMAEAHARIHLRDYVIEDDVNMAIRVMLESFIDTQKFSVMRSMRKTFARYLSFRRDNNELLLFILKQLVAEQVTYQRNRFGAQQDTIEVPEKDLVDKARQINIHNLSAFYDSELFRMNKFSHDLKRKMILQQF

Kd: 10.2 nM
B1: full-length strep-tagged POLD3 (natural protein, human, UniProt Q15054 1-466, looked up)
chain: MADQLYLENIDEFVTDQNKIVTYKWLSYTLGVHVNQAKQMLYDYVERKRKENSGAQLHVTYLVSGSLIQNGHSCHKVAVVREDKLEAVKSKLAVTASIHVYSIQKAMLKDSGPLFNTDYDILKSNLQNCSKFSAIQCAAAVPRAPAESSSSSKKFEQSHLHMSSETQANNELTTNGHGPPASKQVSQQPKGIMGMFASKAAAKTQETNKETKTEAKEVTNASAAGNKAPGKGNMMSNFFGKAAMNKFKVNLDSEQAVKEEKIVEQPTVSVTEPKLATPAGLKKSSKKAEPVKVLQKEKKRGKRVALSDDETKETENMRKKRRRIKLPESDSSEDEVFPDSPGAYEAESPSPPPPPSPPLEPVPKTEPEPPSVKSSSGENKRKRKRVLKSKTYLDGEGCIVTEKVYESESCTDSEEELNMKTSSVHRPPAMTVKKEPREERKGPKKGTAALGKANRQVSITGFFQRK
notes: full-length human POLD3 gene, synthesised and codon-optimised, in pET28b; also called purified POLD3; Strep II-tagged POLD3; source: E. coli BL21, purified (Ni-NTA); not shown: twin-strep, C-terminal, kept
